Assay results as given in patent US20180346600A1 (AJOU UNIVERSITY INDUSTRY ACADEMIC COOPERATION FOUNDATION, published 2018).

Experiments:
[1] = target: T1, displayed FcCH3A, B235 (K392C/D399L), on yeast cell surface (human, UniProt P0DOX5 227-449 = IgG part, chain 1 pos 168 (K392C): said to form an inter-chain disulfide with D399C of the CH3B partner); experiment: flow cytometry of diploid yeast: MFI of Flag-tagged secreted FcCH3B held on displayed FcCH3A (anti-Flag mouse mAb and PE anti-mouse antibody), normalised to EW-RVT = 100 %
T1 construct: also called B235 CH3A chain (yeast)
T1 Fc: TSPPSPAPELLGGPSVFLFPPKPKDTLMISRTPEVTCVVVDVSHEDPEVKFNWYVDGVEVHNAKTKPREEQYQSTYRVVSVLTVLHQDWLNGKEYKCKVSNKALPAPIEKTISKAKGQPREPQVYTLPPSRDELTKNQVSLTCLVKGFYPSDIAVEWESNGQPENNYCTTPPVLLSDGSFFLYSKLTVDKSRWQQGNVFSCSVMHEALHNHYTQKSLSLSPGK
Excerpt: (§1) FACS was sequentially performed four times. […] Table 9 below summarizes the mutation pairs introduced into individual clones selected from the respective LibA2 and LibB2 libraries.

[2] = target: T2, displayed FcCH3A, B256 (K392N/D399L), on yeast cell surface (human, UniProt P0DOX5 227-449 = IgG part); experiment: as above
T2 construct: also called B256 CH3A chain (yeast)
T2 Fc: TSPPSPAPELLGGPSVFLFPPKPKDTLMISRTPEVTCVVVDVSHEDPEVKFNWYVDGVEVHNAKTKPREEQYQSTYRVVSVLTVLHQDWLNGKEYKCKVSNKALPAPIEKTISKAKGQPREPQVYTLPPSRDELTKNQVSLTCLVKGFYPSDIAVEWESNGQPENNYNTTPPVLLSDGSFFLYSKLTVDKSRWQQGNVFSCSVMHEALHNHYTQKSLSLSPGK
Excerpt: as §1

[3] = target: T3, displayed FcCH3A, B240 (K392S/K409R/D399L), on yeast cell surface (human, UniProt P0DOX5 227-449 = IgG part); experiment: as above
T3 construct: also called B240 CH3A chain (yeast)
T3 Fc: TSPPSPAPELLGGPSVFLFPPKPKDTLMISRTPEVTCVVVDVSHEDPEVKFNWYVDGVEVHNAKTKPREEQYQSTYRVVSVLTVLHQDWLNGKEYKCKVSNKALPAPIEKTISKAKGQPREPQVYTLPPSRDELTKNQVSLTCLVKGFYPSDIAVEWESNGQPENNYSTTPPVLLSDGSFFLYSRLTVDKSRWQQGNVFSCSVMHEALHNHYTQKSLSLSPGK
Excerpt: as §1

[4] = target: T4, Hole-Hole (displayed FcCH3A on yeast cell surface); experiment: flow cytometry histogram (PE, FL2-H) of diploid yeast: Flag-tagged secreted FcCH3B held on displayed FcCH3A, anti-Flag mouse mAb and PE anti-mouse antibody
T4 construct: also called Hole-Hole (Genentech) CH3A chain (yeast), T366S/L368A/Y407V
T4 Fc: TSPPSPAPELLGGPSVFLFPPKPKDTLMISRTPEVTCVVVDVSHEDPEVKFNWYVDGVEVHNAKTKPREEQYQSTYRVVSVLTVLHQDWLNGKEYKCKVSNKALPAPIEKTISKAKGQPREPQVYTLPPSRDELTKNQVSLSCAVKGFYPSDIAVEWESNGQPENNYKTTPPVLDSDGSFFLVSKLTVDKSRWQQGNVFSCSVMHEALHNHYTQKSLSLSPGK
Method: Specifically, the diploid in which the expression of the heterodimeric heavy chain constant region was induced was reacted with an antibody recognizing flag-tag included in the secreted FcCH3B (anti-Flag mouse mAb, F3165) (Sigma-Aldrich) and an antibody conjugated with PE (phycoerythrin conjugated anti-mouse mAb, sc-3738) (Santa Cruz biotechnology), and a signal of PE was analyzed by flow cytometry.

[5] = target: T5, displayed FcCH3A, B239 (K392L/D399L), on yeast cell surface (human, UniProt P0DOX5 227-449 = IgG part); experiment: flow cytometry of diploid yeast: MFI of Flag-tagged secreted FcCH3B held on displayed FcCH3A (anti-Flag mouse mAb and PE anti-mouse antibody), normalised to EW-RVT = 100 %
T5 construct: also called B239 CH3A chain (yeast)
T5 Fc: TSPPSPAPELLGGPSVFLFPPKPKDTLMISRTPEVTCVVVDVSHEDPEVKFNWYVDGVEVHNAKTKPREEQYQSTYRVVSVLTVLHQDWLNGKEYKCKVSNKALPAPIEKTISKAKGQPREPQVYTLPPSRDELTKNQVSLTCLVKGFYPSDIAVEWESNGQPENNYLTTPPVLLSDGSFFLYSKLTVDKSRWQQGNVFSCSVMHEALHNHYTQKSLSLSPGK
Excerpt: as §1

B1: secreted FcCH3B, B235 (D399C/K392G/K409M), from yeast (other)
chain: TSPPSPAPELLGGPSVFLFPPKPKDTLMISRTPEVTCVVVDVSHEDPEVKFNWYVDGVEVHNAKTKPREEQYQSTYRVVSVLTVLHQDWLNGKEYKCKVSNKALPAPIEKTISKAKGQPREPQVYTLPPSRDELTKNQVSLTCLVKGFYPSDIAVEWESNGQPENNYGTTPPVLCSDGSFFLYSMLTVDKSRWQQGNVFSCSVMHEALHNHYTQKSLSLSPGK
notes: also called B235 CH3B chain (yeast); not shown: flag-tag
B1: binds [1].

B2: secreted FcCH3B, B256 (D399V/K392G/K409M), from yeast (other)
chain: TSPPSPAPELLGGPSVFLFPPKPKDTLMISRTPEVTCVVVDVSHEDPEVKFNWYVDGVEVHNAKTKPREEQYQSTYRVVSVLTVLHQDWLNGKEYKCKVSNKALPAPIEKTISKAKGQPREPQVYTLPPSRDELTKNQVSLTCLVKGFYPSDIAVEWESNGQPENNYGTTPPVLVSDGSFFLYSMLTVDKSRWQQGNVFSCSVMHEALHNHYTQKSLSLSPGK
notes: also called B256 CH3B chain (yeast); not shown: flag-tag
B2: binds [2].

B3: secreted FcCH3B, B240 (D399G/K392G/K409M), from yeast (other)
chain: TSPPSPAPELLGGPSVFLFPPKPKDTLMISRTPEVTCVVVDVSHEDPEVKFNWYVDGVEVHNAKTKPREEQYQSTYRVVSVLTVLHQDWLNGKEYKCKVSNKALPAPIEKTISKAKGQPREPQVYTLPPSRDELTKNQVSLTCLVKGFYPSDIAVEWESNGQPENNYGTTPPVLGSDGSFFLYSMLTVDKSRWQQGNVFSCSVMHEALHNHYTQKSLSLSPGK
notes: also called B240 CH3B chain (yeast); not shown: flag-tag
B3: binds [3].

B4: Hole-Hole (secreted FcCH3B from yeast) (other)
secreted Fc chain (hinge-CH2-CH3B): TSPPSPAPELLGGPSVFLFPPKPKDTLMISRTPEVTCVVVDVSHEDPEVKFNWYVDGVEVHNAKTKPREEQYQSTYRVVSVLTVLHQDWLNGKEYKCKVSNKALPAPIEKTISKAKGQPREPQVYTLPPSRDELTKNQVSLSCAVKGFYPSDIAVEWESNGQPENNYKTTPPVLDSDGSFFLVSKLTVDKSRWQQGNVFSCSVMHEALHNHYTQKSLSLSPGK
notes: also called Hole-Hole (Genentech) CH3B chain (yeast), T366S/L368A/Y407V
B4: no binding [4].

B5: secreted FcCH3B, B239 (D399S/K392G/K409M), from yeast (other)
chain: TSPPSPAPELLGGPSVFLFPPKPKDTLMISRTPEVTCVVVDVSHEDPEVKFNWYVDGVEVHNAKTKPREEQYQSTYRVVSVLTVLHQDWLNGKEYKCKVSNKALPAPIEKTISKAKGQPREPQVYTLPPSRDELTKNQVSLTCLVKGFYPSDIAVEWESNGQPENNYGTTPPVLSSDGSFFLYSMLTVDKSRWQQGNVFSCSVMHEALHNHYTQKSLSLSPGK
notes: also called B239 CH3B chain (yeast); not shown: flag-tag
B5: binds [5].
